Test: yeast display, Sf9 membrane polyspecificity reagent, FACS + sequencing; frameworks hold sequencing errors
In short: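 Sorting gates, low and high (top ~1%), were placed on anti-HA fluorescence to track expression and on streptavidin fluorescence to track reagent binding. A clone's polyreactivity label is taken from the gate it came out of. The reagent was 10% biotinylated, detergent-solubilized Sf9 membrane, applied for 1 hour at 4 °C to galactose-induced yeast display cells.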

Sequence | polyreactivity (PSR sort gate)
QVQLVESGGGLVQEGGSLRLSCADSGSTFHYYTMGWYRQAPGKERELVAAISWRGTSTYYADSVKGRFTISRDNAKNTVYLQMNSLKPEDTAVYYCAVRSSPGAGYYYWGQGTQVTVSS | high polyreactivity
QVQLVESGGGLVQEGGSLRLSCDASAITIGRYAMGWYRQAPGKERELVAAISWSGGSTYFADSVKGRFTISRDNAKNTVYLHMNSLKPEDTAVYYCATRIRTVAYNYWGQGTQVTVSS | high polyreactivity
QVQLVESGGGLVQEGGSLRLTCAASGITFIYYAMGWYRQAPGKERELVAAISTGGSTYYADSVKGRCTISRDNAMNTVYLQMISLKPEDTAVYYWNALRKSLRGGDYWGQGTQVTVSS | high polyreactivity
QVQLVESGGGLVQEGGSLSLSCAASGLTFTGNAMAWYRQAPGKEREFVAAIRWSAGSTYYADSVKGRFTISRDNAKNTVYLQMNSLKPEDTAVYYCYAALNVSGHYPNDYCGQGTQVTVSS | low polyreactivity
QVQLVESGGGLVQEVGSLRISCAASGRIFYVYSMGWYRQAPGKERELVAAITSGGRTDYADSVKGRFTISRDNAKNTVYLQLNSLKPEDTAVYYCAAGGGWNGHRHRWLYGYGYWGQGTQVTVSS | high polyreactivity
QVQLVESGGGLVQGGGSLRLSCAASGLILRKYAMGWYRQAPGKEREFVAAITQTGSRTYYADSVKGRFTISRDNAKNTVYLQMNSLKPEDTAVYYCNAVNYRSSRDSGYWGQGTQVTVSS | high polyreactivity
QVQLVESGGGLVQGGGSLRLSCAASGRTFRYYAMGWYRQAPGKERELVAAITRSGGSTYYADSVKGRFTISRDNAKYTVYLQMNSLKPEDTAVYYCAASRFTSYGIDYDYWAQGTQVTVSS | high polyreactivity
QVQLVESGGGLVQGGGSLRLSCAASGSTFAVYDMGWYRPAPGKERELVAAITVSGSSTHYADSVKGRFTISRDNAKNTVYLQMNSLKPEDTAVYYWGQGTQVTVSS | low polyreactivity
QVQLVESGGGLVQGGGSLRLSCAASGSTFGRYAMGWYRQAPGKEREFVAGITGRGGSTYYADSVKGRFTISRDNAKNTVYLQMNSLKPQDTAVYYCAAGYRVGYLRAGDYWGQGTQVTVSS | high polyreactivity
QVQLVESGGGLVQGGGSLRLSCDDSGRNFNAYSRGWYRQATAKERELVAAISSRGGSTYYADSVKGRFTISRDNEMNSVYLKMNSLQPEDSAVYYFAAGIYTATGYGYWGQGTQVTVSS | high polyreactivity
QVQLVESGGGLVQGGSLRLSCAASGFTFPIYVMGGYRQAPGKERELVASISSVGSTNYADSVKGRFTISRDNAKNTVYLQMNSLKPEDTAVYYCNADAPNSYGGFDYWGQGTQVTVSS | low polyreactivity
QVQLVESGGGLVQPEGSLRLSSAASGRTFDYYALGWYRQAPGKERELVAAITWRGVSTYYADSVKGRFTISRDNAKNTVYLQMNSLKPEDTAVYYCAAYSYPYWQKRPYDYWGQGTQVTVSS | low polyreactivity
QVQLVESGGGLVQPGGSLRLRCAASGFIFWIYAMGWYRQAPGKERELVAAISLSSGSTYYADSVKGRFTISRDNAKNTVYLEMNSLKTEDTAVYYCAARGYSHVASRLYYYWGQGTQVTVSS | high polyreactivity
QVQLVESGGGLVQPGGSLRLSCAASGATLRSNAMGWSRQAPGKERELVAGISSGGGTYYADSVKGRFTISRDNAKNTVYLQMNSLNTEDTAVYYCAKVVYFGWSVQYYYWGQGTQVNVSS | low polyreactivity
QVQLVESGGGLVQPGGSLRLSCAASGFIFSYYAIGWYRQAPGKERELVAAISYRGGSTHYADSVKGRFTISRDNAKNTVYLQMNSLKPEDTAVYYCAADRVRRPSPVGMDYWGQGTQVTVSS | high polyreactivity
QVQLVESGGGLVQPGGSLRLSCAASGFIFSYYAMGWYRQAPGKERELVAAITQSGGGTYYADSVKGRFTISRDNAKNTVYLQMNSLKPEDTAVYYCAVLYYQTRQVYSGYSRYWLYSSRYDYWGQGTQVTVSS | high polyreactivity
QVQLVESGGGLVQPGGSLRLSCAASGGIFYGYAMGWYRQAPGKERELVAAISSTGGRTYYADSVKGRFTISRDNAKNTVYLQMNSLKPEDTAVYYCAAEDFTRQFEYWGQGTQVTVSS | low polyreactivity
QVQLVESGGGLVQPGGSLRLSCAASGIIFDVYAMGWYRQAPGKERELVAGISSGGSTYYADSVKGRFTISRDNAKNTVYFQMNSLKPEDTAVYYCNADGGYSYESTDHYGYDYWGQGTQVTVSS | low polyreactivity
QVQLVESGGGLVQPGGSLRLSCAASGITFRGYAMGWYRQAPGKERELVATISYRGGNTYYADSVKGRFTISRDNAKNTVYLQMNSLKPEDTAVYYCARKYFRTSNLYGYWGQGTQVTVSS | high polyreactivity
QVQLVESGGGLVQPGGSLRLSCAASGRIFIVNAMGWYRQAPGKERELVAAISRRGGSTYYADSVKGRFTISRDIAKNTVYLQMNSLKPEDTAVYYCNAVGGRYTGWRYDYWGQGTQVTVSS | high polyreactivity

Sequence | polyreactivity (PSR sort gate)
QVQLVESGGGLVQPGGSLRLSCAASGRISSKYAMGWYRQAPGKERELVATISSRGGSTYYADSVKGRFTISRDNAKNTVYLQMNSLKPEDTAVYYCNRPTYLHSTSYSYDYWGQGTQVTVSS | low polyreactivity
QVQLVESGGGLVQPGGSLRLSCAASGSILKSYAMGWYRQAPGKERELVAAITYRDGSTYYAHSVKGRFTISRDNSKNTVYLQMNSLKPVDTAVYYCAAEPSWWNVFYPGYNYWGQGTQVTVSS | high polyreactivity
QVQLVESGGGLVQPGGSLRLSCAASGSTLTLYDMGWYRQAPGKEWEFVAAIRSHGVSTYYADSEKGRFTISRDNAKNTVYLQMNSLQPEDTAVYYCSSVYIPGGRYTYFPYKRYDYWGQGTKVTVSS | high polyreactivity
QVQLVESGGGLVQPGGSLSLSCAASGLTFYSYAMGWSRQAPGKERELVAAITSSGSITYYADSVKGRFTISRDNAKNTVYLQMNSLTPEDTAVYYCAARPYRVRGQRFEGNYCGQGTQVTVSS | high polyreactivity
QVQLVESGGGLVQPGVSLRLSCAASGRTSSSYTMGWYRQEPRKECELVAAITSGVRTYYADSVKGRFTISRDNAKNTVYLQMKSLKPEDTAVYYCNARYVPYTYCRKYFKPYDYWGLGTQVTVSS | high polyreactivity
QVQLVESGGGLVQRGCSLRLSCAASGSTFGYYTMGWYRQAPGKERELVSAISYSGGRTFYADSVKGRFTISRDNAKNTVYFQMISLKPEDHAVYYCNTRYIPSYLSHLDYWGQGTQVTVSS | high polyreactivity
QVQLVESGGGLVQSGASLRLSCAASGRISRFNAMGWYRQAPGKERELVAAISSGGSTHYADSVKGRFTISRDNAKITVYLQMNSLKPEDTAVYYCAASVYRWWRLEAYYYWGQGSQVTVSS | high polyreactivity
QVQLVESGGGLVQSGDSLRLSCAASGIILLSYAMGWYIHAPGKERELVAAITSGGGTNYADSVKGRFTISRDNAKNTVYLQMNSLKPEDTAVYYCAVGAYAGLYYYWGQGTQVTVSS | low polyreactivity
QVQLVESGGGLVQSGGILRLSCAATGSIFTSDAMGWYRLAPGKEMELVAAITFSGGDTYYADSVKGRFTISRDNAKNTVYLQMNSLNPEDTAVYYCNADPQQVGAYEYWGQGTQVTLSS | low polyreactivity
QVQLVESGGGLVQSGGSLPLSCAASGRIFSRNAMGWYRQAPGKERELVAAITSGGSTYYADSVKGRFTISRDNAKNTVYLQMNSLKPEDTAVSTVKILRYDYWGQGTQVTVSS | high polyreactivity
QVQLVESGGGLVQSGGSLRISCAASGGIFKYNAMGWYTQAPGKERELVAAINYSGGRTYYADSVKGRFTISRDNAKNTVYLQMNSLKPEDTAVFYCNALTRGHTGQPYTYDYWGQGNQVTVSS | high polyreactivity
QVQLVESGGGLVQSGGSLRLSCAASGFTFASYAMGWYRQAPGKERELVAAIDSDDSTNYADSVKGRFTISRDNAKNTVYLQMNSLKPEDTAVYYCAADEGPYYGIYEYYYWGQGTQVTVSS | high polyreactivity
QVQLVESGGGLVQSGGSLRLSCAASGGTFRSYAMGWYIQAPGKERELVYAIRRSGGSTYYADSVKGRFTISRDNTKNTVYLQMNSLKPEDTAVYYCAARGYNSRRIWKYYYWGQGTQVTVTS | high polyreactivity
QVQLVESGGGLVQSGGSLRLSCAASGITFFEYAMGWYRQAPGKERELVAVITSGGSTNYADSVKGRFTISRDNAKNTVYLQMNSLKPEDTAVYYCNALVVKYRWWYDYYYWGQGTQVTVSS | low polyreactivity
QVQLVESGGGLVQSGGSLRLSCAASGRIIIRYAMGWYIQEPGKERELVAAISKNGGTTYYADSVKGRFTISRDNAKYTVYLQMNSLKPVDTAVYYGAKRLVSRGRTYAYPEYDYWGQGTQVTVSS | high polyreactivity
QVQLVESGGGLVQSGGSLRLSCAASGRTYDSYAMGWYRPAPGKERELVAVISRSGRTYYADSVKGRFTISRDNAKNTVYLQMNSLKPEDTAVYYCAAKWFRTWSGYWGQGSQVTVSS | high polyreactivity
QVQLVESGGGLVQSGGSLRLSCAASGSIFIGNTMGWYRQAPGKERELVATIRRSGSRTYYADSVKGRFTISRDNAKHTVYLQMNSLKPEDTAVYYCAAVRLRTSGYKTIYDYWGQGTQVTVSS | low polyreactivity
QVQLVESGGGLVQSGGSLRLSCAASGSIFYLYAMGWYRQAPGKERELVAAISWTGGSSYYADSVKGRFTISRDNAKNTVYLQMNSLKPEDTAVYYCAADRVLGGPQPGGSSFRGDYWGQGTQVTVSS | low polyreactivity
QVQLVESGGGLVQSGGSLRLSCAASGSILKFNAMVWYRQAPGKERELVAAITRGTNTYYADSVKGRFTISRDNAKNTVYLQMNSLKPEDTAVYYCAARLPYNAIGYYYWGQGTQVTVSS | low polyreactivity
QVQLVESGGGLVQSGGSLRLSCAASGSTFNYYAMGWYRQAPGKERELVAVINKSGGRTNYADSVKGRFTISRDNAKNTVYLQMNSLKPEDTAVYYCNKVTRREGSYGYPSRYEYWGQGTQVTVSS | high polyreactivity

— the nanobody polyreactivity screen of Harvey et al. (2022)
